According to patent publication US20220048996A1 (F STAR BETA, published 2022):

What was measured:
cCD137-mFc-Avi = biological target: T1, cCD137-mFc-Avi (cynomolgus monkey); test: SPR, antibody captured via anti-human Fc, dimeric antigen flowed, 1:1 fit
T1 construct: 139 used; also called cyno CD137-mFc-Avi; recombinant cyno CD137
T1 chain: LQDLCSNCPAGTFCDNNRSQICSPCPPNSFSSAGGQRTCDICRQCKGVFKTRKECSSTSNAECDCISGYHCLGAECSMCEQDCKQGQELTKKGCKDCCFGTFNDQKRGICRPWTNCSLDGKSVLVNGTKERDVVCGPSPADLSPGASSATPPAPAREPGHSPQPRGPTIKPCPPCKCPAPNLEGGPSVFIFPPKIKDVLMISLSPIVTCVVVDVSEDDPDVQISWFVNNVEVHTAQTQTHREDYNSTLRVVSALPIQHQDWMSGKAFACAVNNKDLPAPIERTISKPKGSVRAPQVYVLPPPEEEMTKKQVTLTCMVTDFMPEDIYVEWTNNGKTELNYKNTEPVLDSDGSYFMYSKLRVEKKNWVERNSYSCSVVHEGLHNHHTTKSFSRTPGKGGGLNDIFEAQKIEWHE
Description: (§1) For CD137 affinity determination, a Biacore CM5 chip (GE Healthcare) was coated with anti-human Fc using a Human Antibody Capture Kit (GE Healthcare) according to manufacturer's conditions, to a surface density of approximately 4000 RU. […] Human or cynomolgus CD137 (hCD137-mFc-Avi or cCD137-mFc-Avi) was flowed over at a range of concentrations in a three-fold dilution series starting at 200 nM, at a flow rate of 70 μl/min. The association time was 2 min and the dissociation time was 8 min. Running buffer was HBS-EP (GE Healthcare BR100188). Flow cells were regenerated by injecting 3M magnesium chloride at a flow rate of 30 μl/min for 30 seconds.
(§2) The binding kinetics were fit with a 1:1 Langmuir model to generate binding association (kₐ) and dissociation (kd) rates. Equilibrium binding constants (KD) were calculated by dividing the dissociation rate by the association rate for each sample. Data analysis was performed with BiaEvaluation software version 3.2.

hCD137-mFc-Avi = biological target: T2, hCD137-mFc-Avi (human); test: as above
T2 construct: Dimer; a biotinylated version was used where the text says so; also called human CD137-mFc-Avi; hCD137-mFc-Avi-Bio
Description: as §1, §2

[1] = biological target: T3, hFcγR3a (R&D Systems 4325-FC-050/CF) (human, UniProt P08637 17-208); test: SPR, antibody 100 nM on CD137-his chip co-injected with FcγR 500 nM
T3 construct: Bought; In the ADCC bioassay FcγRIIIa stood on engineered Jurkat cells; also called FcγRIIIa
Description: (§3) Binding was tested on a Biacore 3000 instrument (GE Healthcare). Human OX40 (BPS Bioscience cat no 71310) and human CD137 (produced in house) biotinylated his-tagged antigens were coated onto an SA chip (GE Healthcare cat no BR100398) at 2 μM concentration. Human OX40 and human CD137 were coated on separate flow cells, while another flow cell was left blank for background subtraction. Regeneration conditions were determined to be 12 μl aqueous 10 mM glycine-HCl at pH2.0 at 20 μl/min flow rate. Antibodies (see Table 8) and human FcγRs (see Table 8) were diluted to 100 nM (antibodies) or 500 nM (human FcγRs) in HBS-P (0.01 M HEPES pH 7.4, 0.15 M NaCl, 0.005% v/v Surfactant P20, GE Healthcare, BR-1003-68) and co-injected at 20 μl/min flow rate and the dissociation was followed for 5 min.
(§4) Data analysis was performed with BiaEvaluation software version 3.2 RC1 by referencing against the blank flow cell and aligning the curves after the association of the antibody. Values for binding response at the end of the association phase were generated by subtracting the […] to normalize the effect of the antibody binding to the OX40 and CD137 receptors.

[2] = biological target: T4, hFcγR1 (R&D Systems 1257-FC-050/CF) (human, UniProt P12314 16-288); test: as above
T4 construct: Bought; also called FcγRI
Description: as §3, §4

[3] = biological target: T5, hFcγR2b (R&D Systems 1460-CD-050/CF) (human, UniProt P31994 46-217, limits assumed); test: as above
T5 construct: Bought; also called FcγRIIb
T5 sequence (looked up): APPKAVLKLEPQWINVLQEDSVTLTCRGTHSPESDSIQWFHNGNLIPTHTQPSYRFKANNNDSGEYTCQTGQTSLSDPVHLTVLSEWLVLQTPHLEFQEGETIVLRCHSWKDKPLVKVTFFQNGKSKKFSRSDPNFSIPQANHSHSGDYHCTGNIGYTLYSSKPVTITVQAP
Description: as §3, §4

[4] = biological target: T6, hFcγR2a (R&D Systems 1330-CD-050/CF) (human, UniProt P12318 36-218, limits assumed); test: as above
T6 construct: Bought; also called FcγRIIa
T6 sequence (looked up): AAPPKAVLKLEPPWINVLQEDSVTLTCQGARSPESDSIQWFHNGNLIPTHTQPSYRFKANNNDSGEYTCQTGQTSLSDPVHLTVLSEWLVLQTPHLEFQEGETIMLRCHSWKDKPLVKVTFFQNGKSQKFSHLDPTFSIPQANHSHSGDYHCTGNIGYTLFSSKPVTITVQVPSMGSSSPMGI
Description: as §3, §4

[5] = biological target: T7, human OX40 expressed on DO11.10 cells (DO11.10-hOX40) (human, UniProt P43489 29-277); test: cell-based or functional assay
T7 sequence: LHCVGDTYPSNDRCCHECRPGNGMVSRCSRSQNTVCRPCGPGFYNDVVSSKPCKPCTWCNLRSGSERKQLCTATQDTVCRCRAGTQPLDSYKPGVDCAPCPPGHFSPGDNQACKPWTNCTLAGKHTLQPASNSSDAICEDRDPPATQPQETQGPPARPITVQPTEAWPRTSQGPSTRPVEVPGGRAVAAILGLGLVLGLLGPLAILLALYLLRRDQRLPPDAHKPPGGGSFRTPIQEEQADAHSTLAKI

[6] = biological target: human CD137 expressed on DO11.10 cells (DO11.10-hCD137) (human, UniProt Q07011 24-255); test: cell-based or functional assay
Sequence of human CD137 expressed on DO11.10 cells (DO11.10-hCD137) (Q07011 24-255): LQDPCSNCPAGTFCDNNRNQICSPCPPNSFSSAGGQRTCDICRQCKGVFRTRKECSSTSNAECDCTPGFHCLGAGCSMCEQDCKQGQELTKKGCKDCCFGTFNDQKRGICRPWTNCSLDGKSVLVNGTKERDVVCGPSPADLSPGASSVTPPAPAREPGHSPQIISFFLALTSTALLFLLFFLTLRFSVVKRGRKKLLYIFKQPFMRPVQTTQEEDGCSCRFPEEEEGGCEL

T4 sequence (P12314 16-288 limits assumed): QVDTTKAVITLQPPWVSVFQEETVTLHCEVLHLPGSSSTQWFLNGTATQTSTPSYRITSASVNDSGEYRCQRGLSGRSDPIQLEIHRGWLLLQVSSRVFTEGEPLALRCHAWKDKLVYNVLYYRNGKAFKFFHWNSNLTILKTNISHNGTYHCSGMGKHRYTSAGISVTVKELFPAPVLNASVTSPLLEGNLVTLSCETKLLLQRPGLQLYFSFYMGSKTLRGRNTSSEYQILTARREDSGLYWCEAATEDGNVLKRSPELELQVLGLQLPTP
T3 sequence (P08637 17-208 limits assumed): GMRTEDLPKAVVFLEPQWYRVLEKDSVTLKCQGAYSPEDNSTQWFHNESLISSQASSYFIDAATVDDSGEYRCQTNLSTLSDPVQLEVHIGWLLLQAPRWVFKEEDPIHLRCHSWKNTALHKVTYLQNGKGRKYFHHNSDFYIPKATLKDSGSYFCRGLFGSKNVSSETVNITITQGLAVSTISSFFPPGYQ

B1: FS20-22-49AA/FS30-10-16 (bispecific antibody, human IgG1, kappa, L234A L235A)
heavy: EVQLLESGGGLVQPGGSLRLSCAASGFTFSSYDMSWVRQAPGKGLEWVSDIDPTGSKTDYADSVKGRFTISRDNSKNTLYLQMNSLRAEDTAVYYCARDLLVYGFDYWGQGTLVTVSSASTKGPSVFPLAPSSKSTSGGTAALGCLVKDYFPEPVTVSWNSGALTSGVHTFPAVLQSSGLYSLSSVVTVPSSSLGTQTYICNVNHKPSNTKVDKKVEPKSCDKTHTCPPCPAPEAAGGPSVFLFPPKPKDTLMISRTPEVTCVVVDVSHEDPEVKFNWYVDGVEVHNAKTKPREEQYNSTYRVVSVLTVLHQDWLNGKEYKCKVSNKALPAPIEKTISKAKGQPREPQVYTLPPSRDEYWDQEVSLTCLVKGFYPSDIAVEWESNGDEQFAYKTTPPVLDSDGSFFLYSKLTVDQYRWNPADYFSCSVMHEALHNHYTQKSLSLSPG
light: EIVLTQSPGTLSLSPGERATLSCRASQSVSSSYLAWYQQKPGQAPRLLIYGASSRATGIPDRFSGSGSGTDFTLTISRLEPEDFAVYYCQQSYSYPVTFGQGTKVEIKRTVAAPSVFIFPPSDEQLKSGTASVVCLLNNFYPREAKVQWKVDNALQSGNSQESVTEQDSKDSTYSLSSTLTLSKADYEKHKVYACEVTHQGLSSPVTKSFNRGEC
notes: IgG1 with LALA; also called OX40/CD137 mAb^2; copies: 2 + 2
cCD137-mFc-Avi
  Kd: 0.15 nM
hCD137-mFc-Avi
  Kd: 0.17 nM
[1]
  binding response at end of association phase of FcγR: 17.3 RU
[2]
  binding response at end of association phase of FcγR: 246 RU
  decrease of binding response at end of dissociation phase of FcγR: 367 RU
[3]
  binding response at end of association phase of FcγR: 9 RU
[4]
  binding response at end of association phase of FcγR: 10.9 RU
[5]
  SEA assay (PBMC), hIL-2 max response, crosslinked: 33800 pg/mL
  SEA assay (PBMC), hIL-2 max response, no crosslinker: 35100 pg/mL
  SEA assay (PBMC), hIL-2 release EC50, crosslinked: 0.1 nM
  SEA assay (PBMC), hIL-2 release EC50, no crosslinker: 0.14 nM
[6]
  EC50 of mIL-2 release, DO11.10-hCD137 assay, crosslinked: 4.7 nM
  Emax of mIL-2 release, DO11.10-hCD137 assay, crosslinked: 16300 pg/mL
